This note sets out measurements from patent US20120177704A1.

The target in this test is human interleukin 12 (human) (UniProt P29459). Briefly: cell-based or functional assay.
Sequence of UniProt P29459 (P29459 23-219 limits assumed, chain 1 of 2): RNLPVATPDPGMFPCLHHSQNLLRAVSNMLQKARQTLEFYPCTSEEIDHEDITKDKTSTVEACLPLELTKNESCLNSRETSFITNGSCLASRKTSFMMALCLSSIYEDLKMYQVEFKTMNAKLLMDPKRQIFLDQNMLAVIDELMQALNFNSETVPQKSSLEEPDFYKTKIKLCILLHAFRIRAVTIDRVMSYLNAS
Sequence of UniProt P29459 (P29460 23-328 limits assumed, chain 2 of 2, further chain): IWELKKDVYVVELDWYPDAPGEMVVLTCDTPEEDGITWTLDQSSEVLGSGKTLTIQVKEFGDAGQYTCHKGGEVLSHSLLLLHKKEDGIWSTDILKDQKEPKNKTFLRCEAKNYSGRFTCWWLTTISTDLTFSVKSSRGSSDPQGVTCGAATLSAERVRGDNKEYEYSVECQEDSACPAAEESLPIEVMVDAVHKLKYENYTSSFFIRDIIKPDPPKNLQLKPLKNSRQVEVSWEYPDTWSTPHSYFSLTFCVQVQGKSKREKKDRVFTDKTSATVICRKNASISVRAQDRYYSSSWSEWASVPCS

monoclonal antibody ABT-874 had a relative biological activity (mean IC50 of reference standard / IC50 of sample x 100%); inhibition of IL-12-stimulated IFN-γ production of NK-92 cells, IFN-γ measured by ELISA of 98%.
